Measured values published in patent publication US8637237.

Biological target: mouse RXRα (mRXRα) (mouse) (UniProt P28700)
Assay: cell-based or functional assay

Work on “GGF (human glucocorticoid receptor amino terminus and DBD linked to the carboxyl terminus (LBD) of FXR) (from UniProt P04150 1-509; Q62735 188-469)” yielded a GGF-dependent transcriptional induction by farnesol (40 µM), FIG. 16D of 2 fold.
